# T1: recombinant human TL1A (human, UniProt O95150 71-251)
# T1 chain: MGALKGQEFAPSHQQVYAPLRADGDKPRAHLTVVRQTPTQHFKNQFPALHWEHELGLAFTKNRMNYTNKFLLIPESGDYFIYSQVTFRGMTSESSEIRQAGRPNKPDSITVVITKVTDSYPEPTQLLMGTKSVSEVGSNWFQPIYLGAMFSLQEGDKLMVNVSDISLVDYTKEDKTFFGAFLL
# T2: human IL-12 (human, UniProt P29460 23-328; P29459 23-219)
# T2 sequence 1: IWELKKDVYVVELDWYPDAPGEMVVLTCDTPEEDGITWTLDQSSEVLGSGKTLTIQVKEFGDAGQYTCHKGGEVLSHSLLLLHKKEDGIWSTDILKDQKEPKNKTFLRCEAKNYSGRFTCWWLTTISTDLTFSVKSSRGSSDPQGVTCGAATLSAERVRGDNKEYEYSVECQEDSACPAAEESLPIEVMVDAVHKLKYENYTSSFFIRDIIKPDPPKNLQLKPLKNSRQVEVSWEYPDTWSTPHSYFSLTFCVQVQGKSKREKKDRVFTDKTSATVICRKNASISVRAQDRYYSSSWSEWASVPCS
# T2 sequence 2: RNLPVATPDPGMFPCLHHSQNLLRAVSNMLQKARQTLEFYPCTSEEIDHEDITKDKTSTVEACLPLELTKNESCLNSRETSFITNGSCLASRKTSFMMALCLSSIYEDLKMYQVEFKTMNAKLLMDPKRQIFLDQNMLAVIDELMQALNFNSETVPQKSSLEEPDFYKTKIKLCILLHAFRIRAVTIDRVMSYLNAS
# T3: human IL-23 (human, UniProt P29460 23-328; Q9NPF7 20-189)
# T3 sequence 1: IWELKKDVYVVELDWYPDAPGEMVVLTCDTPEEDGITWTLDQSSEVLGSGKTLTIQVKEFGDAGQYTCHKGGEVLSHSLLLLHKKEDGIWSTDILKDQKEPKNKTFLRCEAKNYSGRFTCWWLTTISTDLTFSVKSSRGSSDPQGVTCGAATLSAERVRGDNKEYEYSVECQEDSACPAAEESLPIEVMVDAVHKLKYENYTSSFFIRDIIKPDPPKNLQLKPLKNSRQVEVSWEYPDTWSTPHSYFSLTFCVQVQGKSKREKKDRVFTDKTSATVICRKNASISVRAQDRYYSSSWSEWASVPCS
# T3 sequence 2: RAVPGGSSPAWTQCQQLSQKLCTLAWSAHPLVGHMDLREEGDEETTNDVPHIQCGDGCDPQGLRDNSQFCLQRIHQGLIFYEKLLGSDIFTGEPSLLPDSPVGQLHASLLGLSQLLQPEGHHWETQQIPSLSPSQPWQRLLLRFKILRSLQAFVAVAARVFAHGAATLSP
# Legend:
# Test in all cases: cell-based or functional assay
# recombinant human TL1A = target: T1, recombinant human TL1A
# human IL-12 = target: T2, human IL-12
# human IL-23 = target: T3, human IL-23
NF-κB assay IC50 (TF-1 reporter cells) (recombinant human TL1A),"NF-κB assay, Bioactivity relative to TL1A-0372 (recombinant human TL1A)","KIT-225 STAT4 assay IL-12, Bioactivity relative to p40-0003 (human IL-12)",KIT-225 STAT4 assay IL-12 IC50 (human IL-12),"KIT-225 STAT3 assay IL-23, Bioactivity relative to p40-0003 (human IL-23)",KIT-225 STAT3 assay IL-23 IC50 (human IL-23),Binder
0.0911 nM,0.9 fold,1.7 fold,5.7 nM,2.4 fold,3.9 nM,p40TL1A-0001 bispecific antibody (bispecific antibody) heavy 1: EVQLVQSGAEVKKPGESLKISCKGSGYSFTTYWLGWVRQMPGKGLDWIGIMSPVDSDIRYSPSFQGQVTMSVDKSITTAYLQWNSLKASDTAMYYCARRRPGQGYFDFWGQGTLVTVSSASTKGPSVFPLAPSSKSTSGGTAALGCLVKDYFPEPVTVSWNSGALTSGVHTFPAVLQSSGLYSLSSVVTVPSSSLGTQTYICNVNHKPSNTKVDKKVEPKSCRKTHTCPRCPAPEAAGAPSVFLFPPKPKDTLMISRTPEVTCVVVDVSHEDPEVKFNWYVDGVEVHNAKTKPREEQYNSTYRVVSVLTVLHQDWLNGKEYKCKVSNKALPAPIEKTISKAKGQPREPQVYTLPPSREEMTKNQVSLTCLVKGFYPSDIAVEWESNGQPENNYKTTPPVLDSDGSFFLYSRLTVDKSRWQQGNVFSCSVLHEALHSHYTQKSLSLSPGK light 1: not shown heavy 2: QVQLVQSGAEVKKPGASVKVSCKASGYDYTYYGISWVRQAPGQGLEWMGWISTYNTGTHYAPSLQGRVTMTTDTSTSTAYMELRSLRSDDTAVYYCARESYYGSGAFRGGMDVWGQGTTVTVSSASTKGPSVFPLAPSSKSTSGGTAALGCLVKDYFPEPVTVSWNSGALTSGVHTFPAVLQSSGLYSLSSVVTVPSSSLGTQTYICNVNHKPSNTKVDKKVEPKSCEKTHTCPECPAPEAAGAPSVFLFPPKPKDTLMISRTPEVTCVVVDVSHEDPEVKFNWYVDGVEVHNAKTKPREEQYNSTYRVVSVLTVLHQDWLNGKEYKCKVSNKALPAPIEKTISKAKGQPREPQVYTLPPSREEMTKNQVSLTCEVKGFYPSDIAVEWESNGQPENNYKTTPPVLDSDGSFFLYSKLTVDKSRWQQGNVFSCSVLHEALHSHYTQKSLSLSPGK light 2: not shown
0.102 nM,1 fold,,,,,"TL1A-0372 monovalent bispecific antibody (bispecific antibody, human IgG1, kappa) heavy 1: QVQLVQSGAEVKKPGASVKVSCKASGYDYTYYGISWVRQAPGQGLEWMGWISTYNTGTHYAPSLQGRVTMTTDTSTSTAYMELRSLRSDDTAVYYCARESYYGSGAFRGGMDVWGQGTTVTVSSASTKGPSVFPLAPSSKSTSGGTAALGCLVKDYFPEPVTVSWNSGALTSGVHTFPAVLQSSGLYSLSSVVTVPSSSLGTQTYICNVNHKPSNTKVDKKVEPKSCDKTHTCPPCPAPEAAGAPSVFLFPPKPKDTLMISRTPEVTCVVVDVSHEDPEVKFNWYVDGVEVHNAKTKPREEQYNSTYRVVSVLTVLHQDWLNGKEYKCKVSNKALPAPIEKTISKAKGQPREPQVCTLPPSREEMTKNQVSLWCLVKGFYPSDIAVEWESNGQPENNYKTTPPVLDSDGSFFLYSKLTVDKSRWQQGNVFSCSVLHEALHSHYTQKSLSLSPGK heavy 2: not shown light: not shown"

# Reference: patent publication US20240059799A1 (Pfizer, published 2024)
